In patent publication US6613742B1, “Chemokine-derived synthetic peptides” (Thomas Jefferson University, priority 1999, dated 2003):
Where no end group is shown, it is not given here.

Molecular target: T1, CXCR4 (Homo sapiens, UniProt P61073)
T1 construct: expressed in transfected cells; host or cells: QT6 cells, calcium phosphate transfection
Experiment: HIV-1 gp 120-CXCR4 mediated cell-cell fusion assay (luciferase reporter)
Type: cell-based
Details: for inhibiting cell-cell fusion, compared with N-terminal SDF-1 peptides SEQ ID NOS:8 and 10: effector 293 cells + QT6 target cells (CD4, CXCR4), peptide concentration 25 μM (FIG. 1)

T1 sequence (P61073 whole entry): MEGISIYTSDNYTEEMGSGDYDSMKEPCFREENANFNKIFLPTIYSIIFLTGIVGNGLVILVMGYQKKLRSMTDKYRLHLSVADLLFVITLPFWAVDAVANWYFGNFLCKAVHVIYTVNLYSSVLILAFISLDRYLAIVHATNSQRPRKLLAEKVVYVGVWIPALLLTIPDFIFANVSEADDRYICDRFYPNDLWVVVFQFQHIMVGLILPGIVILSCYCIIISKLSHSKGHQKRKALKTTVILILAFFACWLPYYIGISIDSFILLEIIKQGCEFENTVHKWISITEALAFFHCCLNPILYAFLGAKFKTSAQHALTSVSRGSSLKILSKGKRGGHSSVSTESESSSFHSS

Row | Sequence | inhibiting cell-cell fusion, compared with N-terminal SDF-1 peptides SEQ ID NOS:8 and 10 | activity in inhibiting cell-cell fusion (higher concentration of 50 μM)
1 | KPVSLSYRCPCRFFGGQGLKWIQEYLEKALN (cysteine pairing not given here) [SEQ ID NO:5, SDF-1 amino acids 1-14 and 55-67 linked by a (Gly)4 bridge] | substantially more effective | 
2 | LKWIQEYLEKALN [SEQ ID NO:9, C-terminal SDF-1 peptide prepared for comparison, reference compound] |  | only negligibly active
3 | LSYRCPCRFFGGGGLKWIQEYLEKALN (cysteine pairing not given here) [SEQ ID NO:4, SDF-1 amino acids 5-14 and 55-67 linked by (Gly)4] | substantially more effective | 
4 | LSYRCPCRFFGGLKWIQEYLEKALN (cysteine pairing not given here) [SEQ ID NO:6, SDF-1 amino acids 5-14 and 55-67 linked by (Gly)2] | substantially more effective | 
5 | LSYRCPCRFFKKKKLKWIQEYLEKALN (cysteine pairing not given here) [SEQ ID NO:7, SDF-1 amino acids 5-14 and 55-67 linked by (Lys)4] | substantially more effective | 
